Reference: PMC10931773

T1: C-reactive protein (recombinant human CRP) (human) (UniProt P02741)
T1 sequence: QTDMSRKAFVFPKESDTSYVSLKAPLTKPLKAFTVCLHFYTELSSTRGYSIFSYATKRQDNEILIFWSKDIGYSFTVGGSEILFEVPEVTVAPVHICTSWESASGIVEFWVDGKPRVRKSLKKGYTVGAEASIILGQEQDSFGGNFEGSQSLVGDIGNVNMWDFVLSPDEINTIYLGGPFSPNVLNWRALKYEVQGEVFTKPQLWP

B1: anti-CRP single-chain variable fragment (scFv) (scFv, V domains shown)
VH: QVQLQQSGAELVKPGASVKLSCTASGFNIKDYYMHWVKQRTEQGLEWIGRIDPEDGETKYAPKFQGKATITADTSSNTAYLQLSSLTSEDTAVYYCARGYYGSEAMDYWGQGTSLTVSS
VL: SIVMTQSHKFMSTSVGDRVSITCKASQDVNTAVAWYQQKPGQSPKLLIYWASTRHTGVPDRFTGSGFGTDYTLTISSVQAEDLALYYCQQHYSTPWTFGGGTKLEIK
B2: anti-CRP scFv-SpyTag (scFv, V domains shown)
VH: B1 VH
VL: B1 VL
B3: monovalent antibody-enzyme complex (anti-CRP scFv-ST joined to GDH-SC) (complex)
VH: B1 VH
VL: B1 VL

The binders below were run against T1, C-reactive protein (recombinant human CRP) (human) (assay: SPR; Biacore T200; CRP immobilised on a CM5 chip by amine coupling (1074 RU); antibodies 0.50-75 nM injected at 30 µL/min, association and dissociation 120 s; 1:1 Langmuir global fit).

Binder	Kd	koff	kon
B1	4.8 nM	0.0016 s⁻¹	350000 M⁻¹ s⁻¹
B2	5 nM	0.0017 s⁻¹	340000 M⁻¹ s⁻¹
B3	28.7 nM	0.0019 s⁻¹	67000 M⁻¹ s⁻¹
